In patent publication US7939631B2, “APO-2 receptor polypeptides” (Genentech, Inc., priority 1997, dated 2011):
Square brackets hold non-standard residues; d marks the D form. Peptide text beside a SMILES is read from it. Nle = CCCC[C@H](N)C(=O)O

Tests used:
[1] = tested on: HeLa cells transfected with Apo-2; format: cell-based, human
Apo-2L [2] = molecular target: T1, Apo-2L (Homo sapiens, UniProt P50591); experiment: Co-precipitation (immunoprecipitation) assay of Apo-2 ECD-Flag with His-tagged Apo-2L; format: binding; settings: 293 cell supernatant with Apo-2 ECD-Flag, 5 μg poly-histidine-tagged soluble Apo-2L; FIG. 3
T1 construct: poly-histidine; made in house
Protocol: The samples were subjected to immunoprecipitation using 25 μl anti-Flag conjugated agarose beads (Sigma) or Nickel-conjugated agarose beads (Qiagen). After a 1.5 hour incubation at 4° C., the beads were spun down and washed four times in phosphate buffered saline (PBS). […] The precipitated proteins were released by boiling the beads for 5 minutes in SDS-PAGE buffer, resolved by electrophoresis on 12% polyacrylamide gels, and then detected by immunoblot with anti-Apo-2L or anti-Flag antibody (2 μg/ml) as described in Marsters et al., J. Biol. Chem., (1997).
Target sequence in this assay (P50591 39-281 limits assumed): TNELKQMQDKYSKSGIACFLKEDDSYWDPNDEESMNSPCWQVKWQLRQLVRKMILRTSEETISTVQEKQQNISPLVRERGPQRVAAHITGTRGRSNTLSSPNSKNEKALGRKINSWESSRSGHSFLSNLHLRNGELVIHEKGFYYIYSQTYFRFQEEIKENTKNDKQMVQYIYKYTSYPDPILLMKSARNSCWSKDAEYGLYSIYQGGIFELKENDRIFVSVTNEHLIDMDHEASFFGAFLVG

Fas/Apo-1 ligand = molecular target: T2, Fas/Apo-1 ligand (Homo sapiens, UniProt P48023); experiment: BIACORE analysis of purified Apo-2 ECD; format: binding
T2 construct: purchased Alexis Biochemicals
T2 sequence (P48023 103-281 limits assumed): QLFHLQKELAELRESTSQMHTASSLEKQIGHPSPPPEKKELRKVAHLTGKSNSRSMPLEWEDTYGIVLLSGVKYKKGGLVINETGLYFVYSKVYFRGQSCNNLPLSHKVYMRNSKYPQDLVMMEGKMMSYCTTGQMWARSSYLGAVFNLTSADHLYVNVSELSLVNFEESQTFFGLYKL
Excerpt: (§1) The binding interaction was further analyzed by purifying Apo-2 ECD from the transfected 293 cell supernatants with anti-Flag beads (see Example 2) and then analyzing the samples on a BIACORE™ instrument.

TNF-alpha = TNF-alpha (Homo sapiens, UniProt P01375); experiment: BIACORE analysis of purified Apo-2 ECD; format: binding
TNF-alpha, sequence (P01375 77-233 limits assumed): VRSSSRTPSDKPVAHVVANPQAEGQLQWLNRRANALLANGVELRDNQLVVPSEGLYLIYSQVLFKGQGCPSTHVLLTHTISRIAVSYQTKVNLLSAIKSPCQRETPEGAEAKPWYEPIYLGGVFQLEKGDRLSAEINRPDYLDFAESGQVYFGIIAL
Excerpt: as §1

lymphotoxin-alpha = molecular target: T3, lymphotoxin-alpha (Homo sapiens, UniProt P01374); experiment: BIACORE analysis of purified Apo-2 ECD; format: binding
T3 sequence (P01374 35-205): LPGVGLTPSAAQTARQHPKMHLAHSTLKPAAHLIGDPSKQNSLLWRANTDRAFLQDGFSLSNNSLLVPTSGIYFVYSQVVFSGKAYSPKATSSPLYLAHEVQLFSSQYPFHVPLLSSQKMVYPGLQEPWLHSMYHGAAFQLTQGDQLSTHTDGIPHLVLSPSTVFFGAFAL
Excerpt: as §1

Apo-2L [3] = molecular target: T1, Apo-2L; experiment: Inhibition of Apo-2L activity by soluble Apo-2 ECD, apoptosis by FACS; format: cell-based; settings: Apo-2L 0.5 μg/ml pre-incubated 1 hour; Apo-2 ECD 5 μg/ml with anti-Flag antibody 1 μg/ml; FIG. 4D
Protocol: After a 5 hour incubation, the cells were analyzed for apoptosis by FACS (as above) (FIG. 4D).
Target sequence in this assay (P50591 114-281 limits assumed): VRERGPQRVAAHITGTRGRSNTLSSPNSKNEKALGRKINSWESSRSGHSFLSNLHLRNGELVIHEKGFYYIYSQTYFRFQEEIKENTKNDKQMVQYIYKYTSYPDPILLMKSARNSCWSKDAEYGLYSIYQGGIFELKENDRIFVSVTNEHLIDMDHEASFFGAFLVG

HeLa cells = format: cell-based, human; settings: 5 hour

DEVD-fmk
effect on apoptosis induction by Apo-2 [1]: blocked apoptosis induction by Apo-2

Apo-2 ECD: Soluble Apo-2 extracellular domain (amino acid residues 1-184 of FIG. 1) fused to a C-terminal Flag epitope tag
complex formation with Apo-2L by co-precipitation (Apo-2L [2]): can associate with each other | binding to Fas/Apo-1 ligand (Fas/Apo-1 ligand): not capable of binding | binding to TNF-alpha (TNF-alpha): not capable of binding | binding to lymphotoxin-alpha (lymphotoxin-alpha): not capable of binding | blocking of Apo-2L action (apoptosis in HeLa cells) (Apo-2L [3]): capable of blocking Apo-2L action

z-VAD-fmk
effect on apoptosis induction by Apo-2 [1]: blocked apoptosis induction by Apo-2

cyclohexamide
effect on level of Apo-2L-induced apoptosis (HeLa cells): increased the level of Apo-2L-induced apoptosis

CCCC[C@@H](C=O)NC(=O)[C@H](CC(C)C)NC(=O)[C@H](CC(C)C)NC(C)=O [ALLN, N-acetyl-Leu-Leu-norleucinal] (Ac-Leu-Leu-[Nle]-aldehyde)
effect on level of Apo-2L-induced apoptosis (HeLa cells): increased the level of Apo-2L-induced apoptosis
